The numbers were not newly measured in article PMC12732943, which cites them from elsewhere.

As usually defined, the Kd is the free concentration of one partner at which half of the binding sites on the other are occupied at equilibrium, for simple one-to-one binding.

The target of the data set is Fibrin (Homo sapiens) (UniProt P02671).

Take GPVI (monomeric) (from UniProt Q9HCN6): the Kd was 302 nM.
